PMC3749136 (PLoS ONE, 2013)

Target: T1, JAK1 JH1 domain (UniProt P23458 875-1153)
T1 construct: JAK1, JH1 (kinase) domain; also called JAK1 kinase (JH1) domain; active JAK1 JH1 domain
Assay: SPR; SOCS5 175-244 immobilised by amine coupling on a CM5 chip; JAK JH1 domains (62.5 nM to 2 µM) injected; 10 mM HEPES pH 8.0, 200 mM NaCl, 3.0 mM EDTA, 0.05% Tween20; steady-state fit, apparent KD; BIAcore3000
Settings: both partners purified

T1 sequence (P23458 875-1153): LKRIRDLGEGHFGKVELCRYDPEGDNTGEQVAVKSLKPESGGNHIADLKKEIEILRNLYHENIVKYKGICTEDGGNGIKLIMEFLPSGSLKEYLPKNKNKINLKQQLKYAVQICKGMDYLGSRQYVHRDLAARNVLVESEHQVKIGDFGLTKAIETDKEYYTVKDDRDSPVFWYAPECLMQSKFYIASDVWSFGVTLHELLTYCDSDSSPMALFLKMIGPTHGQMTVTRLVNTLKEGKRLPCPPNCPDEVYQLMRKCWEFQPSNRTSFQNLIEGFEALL

Kd: 500 nM
B1: SOCS5 175–244 fragment (domain or fragment, mouse, UniProt O54928 175-244, looked up)
chain: RSLRQRLQDTVGLCFPMRTYSKQSKPLFSNKRKIHLSELMLEKCPFPAGSDLAQKWHLIKQHTAPVSPHS
notes: SOCS5, mouse, residues 175-244 (region conserved in SOCS4); Mass by LC-MS 8103 Da; also called JIR; source: E. coli BL21 (DE3), GST fusion purified on glutathione-Sepharose 4B, cleaved with TEV, RP-HPLC; not shown: GST, N-terminal, cleaved
